Laboratory results from US20240034786A1 (WUXI BIOLOGICS IRELAND, published 2024).

Legend:
[1] = target: T1, Human P-cadherin on cells (human, UniProt P22223 108-829); test: FACS on HCT-116 cells
T1 construct: whole, on cells; Endogenous P-cadherin on tumour cell lines; also called hPro1
Protocol: (§1) Binding of the test antibodies to P-cadherin expressed on cells was determined by flow cytometry analysis. […] 1×10⁵ cells/well (100 μL) were added to each well of a 96-well U-plate (Corning, #3799) and centrifuged at 1500 rpm (Eppendorf, #5810R) for 5 minutes before removing the supernatant. Antibodies serially diluted in 1% BSA/1×PBS (Ca+/Mg+) were added at 100 μL/well to the pelleted cells and incubated at 4° C. for 1 hour. Anon-related hIgG1 antibody was used as an isotype control. Cells were washed two times with 180 μL/well of 1% BSA/1×PBS (Ca+/Mg+) by centrifugation at 1500 rpm for 5 minutes at 4° C. Pelleted cells were resuspended in 100 μL/well Alexa647 conjugated Goat anti-human IgG Fc (Jackson, #109-605-098) 1:500 diluted in 1% BSA/1×PBS (Ca+/Mg+) for 30 minutes at 4° C. in the dark. Cells were then washed two times as described above. After the final wash, cells were resuspended in 100 μL 1% BSA/1×PBS (Ca+/Mg+) and fluorescence values were measured with a FACS Canto II cytometer (BD Biosciences). The amount of cell surface bound anti-P-cadherin antibody was assessed by measuring the mean fluorescence (MFI). The FACS raw data were analyzed by FlowJo software, wells containing no antibody or secondary antibody only were used to establish background fluorescence. Binding EC50 values were obtained by the four-parameter non-linear regression analysis using GraphPad Prism6 software.

[2] = target: T1, Human P-cadherin on cells; test: cell-based or functional assay
[3] = target: T2, Cyno P-cadherin on W319-CHOK1.cynoPro1.FL cells (cynomolgus, UniProt A0A2K5WPN9 108-829); test: FACS on CHOK1 cells transiently expressing cyno P-cadherin
T2 construct: whole, on cells; also called cynomolgus P-cadherin; W391-CHOK1.cynoPro1.FL (transient)
Protocol: as §1, with “Binding EC50 values were obtained by the four-parameter non-linear regression analysis using GraphPad Prism6 software.” left out
Binding of the test antibodies to cynomolgus P-cadherin expressed on cells was determined by flow cytometry analysis. […]

[4] = target: T1, Human P-cadherin on cells; test: cell-based or functional assay; remark: listed apart in the source
W319-hPro1.D1.ECD.hFc = target: T3, W319-hPro1.D1.ECD.hFc (human, UniProt P22223 108-236); test: direct ELISA on coated antigen
T3 construct: range 108-236; also called Human P-cadherin ECD domain 1; not shown: human Fc by the code hFc
T3 sequence (P22223 108-236): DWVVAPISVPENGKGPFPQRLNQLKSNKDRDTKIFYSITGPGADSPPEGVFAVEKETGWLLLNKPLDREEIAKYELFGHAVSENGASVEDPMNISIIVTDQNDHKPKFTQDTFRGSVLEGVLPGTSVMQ
Protocol: (§2) The binding of the antibodies to W319-hPro1.D1.ECD.hFc, W319-hPro1.D12.ECD.hFc (WT), W319-hPro1.D123.ECD.hFc (WT), W319-hPro1.D1234.ECD.hFc (WT) (2.5) and W319-hPro1.ECD.hFc (WT)-P3 were tested by a direct protein binding ELISA. 96-well high protein binding ELISA plates (Nunc MaxiSorp, ThermoFisher, Cat #: 442404) were coated overnight at 4° C. with 1 μg/mL antigens in Carbonate-bicarbonate buffer (20 mM Na2CO3, 180 mM NaHCO3, pH=9.2). All wells were washed three time with 300 μL per well of PBS/0.5‰ Tween-20 (v/v) and all the following wash steps in the assay were performed the same. The wells were then blocked for one hour with 2% BSA (Bovogen, Cat #: BSAS)/1×PBS (Ca+/Mg+) (Gibco, #14040-117) and washed three times. For the primary antibody binding, the testing antibodies including the BMKs and our antibodies serially diluted in 2% BSA/1×PBS (Ca+/Mg+) were added to the relevant wells and incubated at room temperature for two hours. Plates were washed three times prior to the addition of 100 μL of secondary antibody Goat anti-Human-IgG-F(ab′)2-HRP (Jackson, Cat #: 109-035-097) 5000-fold diluted in 2% BSA/1×PBS (Ca+/Mg+). Plates were incubated at room temperature for one hour, followed by six washes as describe above.
(§3) For the binding detection, 100 μL Tetramethylbenzidine (TMB) Substrate solution (Invitrogen, Cat #: 002023) was added to all wells for 10 minutes before stopping the reaction with 100 μL 2M HCl. The extent of the testing Abs binding to W319-hPro1.D1.ECD.hFc, W319-hPro1.D12.ECD.hFc (WT), W319-hPro1.D123.ECD.hFc (WT), W319-hPro1.D1234.ECD.hFc (WT) and W319-hPro1.ECD.hFc (WT)-P3 were determined by measuring the OD450 absorbance using the SpectraMax® M5e microplate reader. Wherever appropriate, binding EC50 values were obtained by the four-parameter non-linear regression analysis using GraphPad Prism 5 software.
(§4) Its binding epitope is different from BMKs.

[5] = target: T4, W319-hPro1.D1234.ECD.hFc (WT) (human, UniProt P22223 108-550); test: direct ELISA on coated antigen
T4 construct: range 108-550; also called Human P-cadherin ECD domain 1&2&3&4; domain 1-4; not shown: human Fc by the code hFc
T4 sequence (P22223 108-550): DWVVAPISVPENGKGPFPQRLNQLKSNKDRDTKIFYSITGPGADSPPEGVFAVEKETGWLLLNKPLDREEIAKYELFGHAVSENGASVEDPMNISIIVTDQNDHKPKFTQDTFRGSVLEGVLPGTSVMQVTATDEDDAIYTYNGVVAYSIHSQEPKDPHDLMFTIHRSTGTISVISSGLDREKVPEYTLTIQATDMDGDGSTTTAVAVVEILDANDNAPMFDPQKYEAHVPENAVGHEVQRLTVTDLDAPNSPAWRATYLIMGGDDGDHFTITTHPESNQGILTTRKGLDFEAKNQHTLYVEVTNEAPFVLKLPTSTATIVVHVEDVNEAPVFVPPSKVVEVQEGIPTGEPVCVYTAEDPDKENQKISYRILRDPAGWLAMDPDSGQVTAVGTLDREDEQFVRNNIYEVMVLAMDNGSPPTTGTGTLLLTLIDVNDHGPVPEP
Protocol: as §2, §3, §4

[6] = target: T5, W319-hPro1.D12.ECD.hFc (WT) (human, UniProt P22223 108-348); test: direct ELISA on coated antigen
T5 construct: range 108-348; also called Human P-cadherin ECD domain 1&2; domain 1-2; not shown: human Fc by the code hFc
T5 sequence (P22223 108-348): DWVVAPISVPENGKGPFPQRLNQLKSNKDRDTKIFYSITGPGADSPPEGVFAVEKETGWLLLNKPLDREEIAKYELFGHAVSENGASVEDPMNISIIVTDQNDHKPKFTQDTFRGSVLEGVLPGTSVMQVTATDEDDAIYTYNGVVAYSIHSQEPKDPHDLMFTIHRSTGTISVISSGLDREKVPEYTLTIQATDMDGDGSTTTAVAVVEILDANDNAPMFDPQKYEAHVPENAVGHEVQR
Protocol: as §2, §3, §4

[7] = target: T6, W319-hPro1.D123.ECD.hFc (WT) (human, UniProt P22223 108-461); test: direct ELISA on coated antigen
T6 construct: range 108-461; also called Human P-cadherin ECD domain 1&2&3; domain 1-3; not shown: human Fc by the code hFc
T6 sequence (P22223 108-461): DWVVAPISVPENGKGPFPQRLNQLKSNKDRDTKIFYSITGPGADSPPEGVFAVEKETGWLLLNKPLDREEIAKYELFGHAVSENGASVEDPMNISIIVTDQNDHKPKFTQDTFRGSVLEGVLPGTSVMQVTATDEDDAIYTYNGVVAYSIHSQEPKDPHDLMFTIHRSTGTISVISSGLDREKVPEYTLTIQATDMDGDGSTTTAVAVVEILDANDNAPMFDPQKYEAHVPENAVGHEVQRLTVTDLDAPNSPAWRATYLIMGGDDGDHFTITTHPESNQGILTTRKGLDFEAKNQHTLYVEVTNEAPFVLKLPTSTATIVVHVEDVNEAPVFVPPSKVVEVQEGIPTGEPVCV
Protocol: as §2, §3, §4

[8] = target: T7, W319-hPro1.ECD.hFc (WT)-P3 (human, UniProt P22223 108-654); test: direct ELISA on coated antigen
T7 construct: range 108-654; also called Human P-cadherin ECD; not shown: human Fc by the code hFc
T7 sequence (P22223 108-654): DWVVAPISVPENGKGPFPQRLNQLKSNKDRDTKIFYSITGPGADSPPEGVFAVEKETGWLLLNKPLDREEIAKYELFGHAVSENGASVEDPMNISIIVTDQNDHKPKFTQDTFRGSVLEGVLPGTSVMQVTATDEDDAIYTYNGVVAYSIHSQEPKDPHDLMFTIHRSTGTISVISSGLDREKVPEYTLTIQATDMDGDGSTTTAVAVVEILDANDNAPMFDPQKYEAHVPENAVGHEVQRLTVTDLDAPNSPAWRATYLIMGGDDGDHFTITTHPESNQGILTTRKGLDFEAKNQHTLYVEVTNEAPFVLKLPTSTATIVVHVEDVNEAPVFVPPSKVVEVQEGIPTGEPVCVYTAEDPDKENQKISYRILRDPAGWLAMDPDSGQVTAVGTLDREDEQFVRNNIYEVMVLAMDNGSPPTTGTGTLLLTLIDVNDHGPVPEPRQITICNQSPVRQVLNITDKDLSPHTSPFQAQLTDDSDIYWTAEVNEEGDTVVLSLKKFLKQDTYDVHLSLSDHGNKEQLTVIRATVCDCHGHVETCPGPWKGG
Protocol: as §2, §3, §4

[9] = target: T1, Human P-cadherin on cells; test: cell-based or functional assay; remark: listed apart in the source
[10] = target: T1, Human P-cadherin on cells; test: FACS on DU-145 cells
Protocol: as §1

T1 sequence (P22223 108-829): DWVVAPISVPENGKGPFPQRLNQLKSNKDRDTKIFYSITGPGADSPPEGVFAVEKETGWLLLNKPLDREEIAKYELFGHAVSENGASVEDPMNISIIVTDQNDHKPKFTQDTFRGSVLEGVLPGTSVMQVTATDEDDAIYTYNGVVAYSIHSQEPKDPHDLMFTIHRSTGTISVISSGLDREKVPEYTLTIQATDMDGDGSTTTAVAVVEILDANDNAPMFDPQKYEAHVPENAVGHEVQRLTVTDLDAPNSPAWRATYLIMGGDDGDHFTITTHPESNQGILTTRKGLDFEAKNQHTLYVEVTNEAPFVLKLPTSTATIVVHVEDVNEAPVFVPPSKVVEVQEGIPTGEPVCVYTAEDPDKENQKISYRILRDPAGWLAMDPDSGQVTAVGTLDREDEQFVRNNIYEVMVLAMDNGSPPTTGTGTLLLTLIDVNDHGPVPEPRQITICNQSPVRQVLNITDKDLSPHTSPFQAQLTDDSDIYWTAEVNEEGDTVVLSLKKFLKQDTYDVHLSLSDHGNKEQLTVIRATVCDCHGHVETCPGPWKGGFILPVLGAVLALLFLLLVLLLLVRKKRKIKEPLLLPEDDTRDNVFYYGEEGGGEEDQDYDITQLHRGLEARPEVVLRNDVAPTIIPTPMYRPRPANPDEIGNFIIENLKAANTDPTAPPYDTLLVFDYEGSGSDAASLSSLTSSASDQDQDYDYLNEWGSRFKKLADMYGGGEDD

B1: W3195-1.53.1-p1-uIgG1L (antibody)
heavy: not shown
light: SYELTQPPSVSVSPGQTAQITCSGDKLGDKFASWYQQKSGQSPVVVIYQDNKRPSGFPERFSGSNSGNTATLTISGTQAMDEADYYCQAWDSSIVVFGGGTKLTVLGQPKAAPSVTLFPPSSEELQANKATLVCLISDFYPGAVTVAWKADSSPVKAGVETTTPSKQSNNKYAASSYLSLTPEQWKSHRSYSCQVTHEGSTVEKTVAPTECS
notes: also called W3195-p1 antibody
- EC50 [1]: 0.21 nM
- ADCC reporter gene assay, EC50 [2]: 0.052 nM
- ADCC reporter gene assay, Max Fold Change [2]: 145 fold
- EC50 [3]: 0.095 nM
- internalization, Fab-ZAP CTG assay on HCC-1954, IC50 [4]: 0.02 nM
- Max OD450 (W319-hPro1.D1.ECD.hFc): 0.07
- EC50 [5]: 0.087 nM
- Max OD450 [5]: 2.88
- Max OD450 [6]: 0.08
- EC50 [7]: 0.08 nM
- Max OD450 [7]: 2.83
- EC50 [8]: 0.14 nM
- Max OD450 [8]: 2.88
- internalization, HCS assay on HCC-1954, EC50 [9]: 0.029 nM
- EC50 [10]: 0.1 nM
- Max MFI [10]: 2290
